Test results published in FireProtDB (doi:10.1021/bi982427c).

Conditions: Bos taurus; pH 5.3; 5 °C; GdnHCl; Fluorescence; Sodium acetate 0.02 M; reversible: yes; whole UniProt chain shown

B1: Acyl-CoA-binding protein wild type, P07107 (protein)
chain: MSQAEFDKAAEEVKHLKTKPADEEMLFIYSHYKQATVGDINTERPGMLDFKGKAKWDAWNELKGTSKEDAMKAYIDKVEELKKKYGI
With B1 the unfolding free energy was 7.89 kcal/mol.
